Measured values reported in patent publication US20200181223A1.
Blank lines part the entries; values can stand above or below the substance they belong to.

Columns and labels:
[1] = target: human insulin receptor isoform B (IR-B) (human) (UniProt P06213)
[2] = target: Glu(A14)Val(B16)Des(B30)-Insulin (human)
[3] = target: Glu(A14)Val(B25)Des(B30)-Insulin (human)
[4] = target: Glu(A14)Ile(B25)Des(B30)-Insulin (human)
[5] = target: Glu(A14)Des(B30)-Insulin (human)
[6] = target: Human Insulin (wild-type) (human)
[7] = target: Val(B25)Des(B30)-Insulin (human)
[8] = target: Glu(A14)Val(B16)Val(B25)Des(B30)-Insulin (human)
[9] = target: Ala(B25)-Insulin (human)
[10] = target: human insulin receptor isoform B (IR-B) (human) (UniProt P06213); assay: SPA competition with [125I]-labelled human insulin, plasma membranes of CHO cells overexpressing the IR; 0 means below the detection limit
[11] = target: human insulin receptor isoform B (IR-B) (human) (UniProt P06213); assay: SPA competition with [125I]-labelled human insulin, plasma membranes of CHO cells overexpressing the IR
[12] = target: human insulin receptor isoform B (IR-B) (human) (UniProt P06213); assay: SPA competition with [125I]-labelled human insulin, plasma membranes of CHO cells overexpressing the IR; category B (<20%) as defined in paragraph 522
[13] = target: Glu(A14)Gly(A21)Trp(B25)Des(B30)-Insulin (human)
Sequence of Glu(A14)Gly(A21)Trp(B25)Des(B30)-Insulin (human) (chain, as listed by the source, chain 1 of 2): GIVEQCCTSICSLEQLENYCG
Sequence of Glu(A14)Gly(A21)Trp(B25)Des(B30)-Insulin (human) (chain, as listed by the source, chain 2 of 2): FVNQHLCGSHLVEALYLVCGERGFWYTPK

[14] = target: Glu(A14)His(B16)Des(B30)-Insulin (human)
Sequence of Glu(A14)His(B16)Des(B30)-Insulin (human) (chain, as listed by the source, chain 1 of 2): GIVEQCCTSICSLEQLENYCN
Sequence of Glu(A14)His(B16)Des(B30)-Insulin (human) (chain, as listed by the source, chain 2 of 2): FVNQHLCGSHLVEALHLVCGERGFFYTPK

[15] = target: Gly(A21)Trp(B16)His(B25)Des(B30)-Insulin (human)
Sequence of Gly(A21)Trp(B16)His(B25)Des(B30)-Insulin (human) (chain, as listed by the source, chain 1 of 2): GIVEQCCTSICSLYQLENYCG
Sequence of Gly(A21)Trp(B16)His(B25)Des(B30)-Insulin (human) (chain, as listed by the source, chain 2 of 2): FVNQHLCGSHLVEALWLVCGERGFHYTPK

[16] = target: Leu(B25)Des(B30)-Insulin (human)
Sequence of Leu(B25)Des(B30)-Insulin (human) (chain, as listed by the source, chain 1 of 2): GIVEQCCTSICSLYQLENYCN
Sequence of Leu(B25)Des(B30)-Insulin (human) (chain, as listed by the source, chain 2 of 2): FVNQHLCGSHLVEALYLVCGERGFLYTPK

Sequence of purified pepsin (from porcine stomach mucosa) in simulated gastric fluid (P00791 60-385): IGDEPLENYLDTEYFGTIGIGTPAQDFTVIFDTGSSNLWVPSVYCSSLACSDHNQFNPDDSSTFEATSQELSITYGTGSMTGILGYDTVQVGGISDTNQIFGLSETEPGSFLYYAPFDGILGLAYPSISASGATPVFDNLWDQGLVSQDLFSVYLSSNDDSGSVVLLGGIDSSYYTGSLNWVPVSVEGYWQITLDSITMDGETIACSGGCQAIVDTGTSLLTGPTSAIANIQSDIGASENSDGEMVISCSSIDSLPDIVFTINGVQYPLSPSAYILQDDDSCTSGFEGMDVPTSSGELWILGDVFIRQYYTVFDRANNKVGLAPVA
Sequence of Glu(A14)Glu(B16)His(B25)Des(B30)-Insulin (ligand) (chain): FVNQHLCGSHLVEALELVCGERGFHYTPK
Sequence of Glu(A14)Ile(B16)Des(B30)-Insulin (ligand) (chain): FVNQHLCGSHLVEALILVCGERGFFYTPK
Sequence of Glu(A14)Glu(B3)Ile(B16)Ile(B25)Des(B30)-Insulin (ligand) (chain): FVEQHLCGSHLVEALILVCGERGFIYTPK
Sequence of Glu(A14)Leu(B16)Ala(B25)Des(B30)-Insulin (ligand) (chain): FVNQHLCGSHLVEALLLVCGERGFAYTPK
Sequence of Glu(A14)Glu(B3)Val(B16)Des(B30)-Insulin (ligand) (chain): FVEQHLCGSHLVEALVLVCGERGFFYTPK
Sequence of Glu(A14)Ile(B16)Val(B25)Des(B30)-Insulin (ligand) (chain): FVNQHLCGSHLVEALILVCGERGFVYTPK
Sequence of Glu(A14)Glu(B3)Val(B16)Val(B25)Des(B30)-Insulin (ligand) (chain): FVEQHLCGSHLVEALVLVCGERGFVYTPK
Sequence of Glu(A14)Val(B16)Ile(B25)Des(B30)-Insulin (ligand) (chain): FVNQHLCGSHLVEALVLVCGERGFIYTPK
Sequence of Glu(A14)Val(B16)Val(B25)Des(B30)-Insulin (ligand) (chain): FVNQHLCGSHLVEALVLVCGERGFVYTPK
Sequence of Glu(A14)His(B16)His(B25)Des(B30)-Insulin (ligand) (chain): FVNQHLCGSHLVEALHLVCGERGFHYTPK
Sequence of Glu(A14)Gly(A21)Val(B16)Trp(B25)Des(B30)-Insulin (ligand) (chain): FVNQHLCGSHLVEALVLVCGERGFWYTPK
Sequence of Glu(A14)Gly(A21)Glu(B3)Ile(B16)Val(B25)Des(B30)-Insulin (ligand) (chain): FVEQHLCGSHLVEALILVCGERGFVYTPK
Sequence of Glu(A14)Gly(A21)Trp(B16)Des(B30)-Insulin (ligand) (chain): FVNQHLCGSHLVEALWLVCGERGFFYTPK
Sequence of Glu(A14)Gly(A21)Glu(B3)Val(B25)Des(B30)-Insulin (ligand) (chain): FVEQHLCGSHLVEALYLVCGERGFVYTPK
Sequence of Glu(A14)Gly(A21)Glu(B3)Val(B16)Trp(B25)Des(B30)-Insulin (ligand) (chain): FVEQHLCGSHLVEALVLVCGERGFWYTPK
Sequence of Glu(A14)Gly(A21)Glu(B3)Ile(B16)Trp(B25)Des(B30)-Insulin (ligand) (chain): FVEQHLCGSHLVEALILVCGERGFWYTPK
Sequence of Gly(A21)Trp(B16)Trp(B25)Des(B30)-Insulin (ligand) (chain): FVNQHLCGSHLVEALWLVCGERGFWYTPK
Sequence of Glu(A14)His(B16)Ala(B25)Des(B30)-Insulin (ligand) (chain): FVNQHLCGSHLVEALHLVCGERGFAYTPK
Sequence of Glu(A14)Val(B16)Des(B30)-Insulin (ligand) (chain): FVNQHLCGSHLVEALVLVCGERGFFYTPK
Sequence of Ala(B25)Des(B30)-Insulin (ligand) (chain): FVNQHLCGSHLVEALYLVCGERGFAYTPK

autophosphorylation activity relative to human insulin (relative to human insulin) [1]: 0.17
Substance: Ala(B25)Des(B30)-Insulin (ligand)

percent remaining insulin analog after 30 minutes with Cathepsin D [2]: 0%
percent remaining insulin analog after 30 minutes with Cathepsin D [3]: 59%
percent remaining insulin analog after 30 minutes with Cathepsin D [4]: 20%
percent remaining insulin analog after 30 minutes with Cathepsin D [5]: 0%
percent remaining insulin after 30 minutes with Cathepsin D [6]: 0%
percent remaining insulin analog after 30 minutes with Cathepsin D [7]: 43%
percent remaining insulin analog after 30 minutes with Cathepsin D [8]: 62%
percent remaining insulin analog after 30 minutes with Cathepsin D [9]: 52%
Substance: Cathepsin D (enzyme)

Insulin-receptor binding affinity relative to human insulin (relative to human insulin) [10]: 0
autophosphorylation activity relative to human insulin (relative to human insulin) [1]: 0.01
Substance: Glu(A14)Glu(B3)Ile(B16)Ile(B25)Des(B30)-Insulin (ligand)

autophosphorylation activity relative to human insulin (relative to human insulin) [1]: 0.28
Insulin-receptor binding affinity relative to human insulin (relative to human insulin) [11]: 0.4
Substance: Glu(A14)Glu(B3)Val(B16)Des(B30)-Insulin (ligand)

Insulin-receptor binding affinity relative to human insulin (relative to human insulin) [10]: 0
autophosphorylation activity relative to human insulin (relative to human insulin) [1]: 0.02
Substance: Glu(A14)Glu(B3)Val(B16)Val(B25)Des(B30)-Insulin (ligand)

autophosphorylation activity relative to human insulin (relative to human insulin) [1]: 0.07
Insulin-receptor binding affinity relative to human insulin (relative to human insulin) [11]: 0.01
Substance: Glu(A14)Glu(B16)His(B25)Des(B30)-Insulin (ligand)

autophosphorylation activity relative to human insulin (relative to human insulin) [1]: 0.13
Insulin-receptor binding affinity relative to human insulin (relative to human insulin) [11]: 0.12
Substance: Glu(A14)Gly(A21)Glu(B3)Ile(B16)Trp(B25)Des(B30)-Insulin (ligand)

autophosphorylation activity relative to human insulin (relative to human insulin) [1]: 0.02
Insulin-receptor binding affinity relative to human insulin (relative to human insulin) [11]: 0.01
Substance: Glu(A14)Gly(A21)Glu(B3)Ile(B16)Val(B25)Des(B30)-Insulin (ligand)

autophosphorylation activity relative to human insulin (relative to human insulin) [1]: 0.19
Insulin-receptor binding affinity relative to human insulin (relative to human insulin) [11]: 0.21
Substance: Glu(A14)Gly(A21)Glu(B3)Val(B16)Trp(B25)Des(B30)-Insulin (ligand)

autophosphorylation activity relative to human insulin (relative to human insulin) [1]: 0.01
Insulin-receptor binding affinity relative to human insulin (relative to human insulin) [11]: 0.01
Substance: Glu(A14)Gly(A21)Glu(B3)Val(B16)Val(B25)Des(B30)-Insulin (ligand)

autophosphorylation activity relative to human insulin (relative to human insulin) [1]: 0.03
Insulin-receptor binding affinity relative to human insulin (relative to human insulin) [11]: 0.02
Substance: Glu(A14)Gly(A21)Glu(B3)Val(B25)Des(B30)-Insulin (ligand)

autophosphorylation activity relative to human insulin (relative to human insulin) [1]: 0.38
Insulin-receptor binding affinity relative to human insulin (relative to human insulin) [11]: 0.63
Substance: Glu(A14)Gly(A21)Trp(B16)Des(B30)-Insulin (ligand)

autophosphorylation activity relative to human insulin (relative to human insulin) [1]: 0.23
Insulin-receptor binding affinity relative to human insulin (relative to human insulin) [11]: 0.17
Substance: Glu(A14)Gly(A21)Val(B16)Trp(B25)Des(B30)-Insulin (ligand)

autophosphorylation activity relative to human insulin (relative to human insulin) [1]: 0.11
Substance: Glu(A14)His(B16)Ala(B25)Des(B30)-Insulin (ligand)

autophosphorylation activity relative to human insulin (relative to human insulin) [1]: 0.29
Insulin-receptor binding affinity relative to human insulin (relative to human insulin) [11]: 0.36
Substance: Glu(A14)His(B16)Des(B30)-Insulin (ligand)

autophosphorylation activity relative to human insulin (relative to human insulin) [1]: 0.11
Insulin-receptor binding affinity relative to human insulin (relative to human insulin) [11]: 0.12
Substance: Glu(A14)His(B16)His(B25)Des(B30)-Insulin (ligand)

Insulin receptor B binding affinity relative to human insulin [12]: < 20%
Substance: Glu(A14)His(B16)His(B25)[16-[4-[[5-[2-[2-[2-[2-[2-(carboxymethyloxy)ethoxy]ethylamino]-2-oxoethoxy]ethoxy]-ethylcarbamoyl]pyrimidin-2-yl]sulfamoyl]phenoxy]hexadecanoic acid]Lys(B29)Des(B30)-insulin (ligand)

autophosphorylation activity relative to human insulin (relative to human insulin) [1]: 0.18
Insulin-receptor binding affinity relative to human insulin (relative to human insulin) [11]: 0.23
Substance: Glu(A14)Ile(B16)Des(B30)-Insulin (ligand)

Insulin-receptor binding affinity relative to human insulin (relative to human insulin) [10]: 0
autophosphorylation activity relative to human insulin (relative to human insulin) [1]: 0.04
Substance: Glu(A14)Ile(B16)Val(B25)Des(B30)-Insulin (ligand)

autophosphorylation activity relative to human insulin (relative to human insulin) [1]: 0.04
Insulin-receptor binding affinity relative to human insulin (relative to human insulin) [11]: 0.01
Substance: Glu(A14)Leu(B16)Ala(B25)Des(B30)-Insulin (ligand)

autophosphorylation activity relative to human insulin (relative to human insulin) [1]: 0.32
Substance: Glu(A14)Val(B16)Des(B30)-Insulin (ligand)

Insulin-receptor binding affinity relative to human insulin (relative to human insulin) [10]: 0
autophosphorylation activity relative to human insulin (relative to human insulin) [1]: 0.01
Substance: Glu(A14)Val(B16)Ile(B25)Des(B30)-Insulin (ligand)

Insulin-receptor binding affinity relative to human insulin (relative to human insulin) [10]: 0
autophosphorylation activity relative to human insulin (relative to human insulin) [1]: 0.03
Substance: Glu(A14)Val(B16)Val(B25)Des(B30)-Insulin (ligand)

autophosphorylation activity relative to human insulin (relative to human insulin) [1]: 0.4
Insulin-receptor binding affinity relative to human insulin (relative to human insulin) [11]: 0.57
Substance: Gly(A21)Trp(B16)Des(B30)-Insulin (ligand)

autophosphorylation activity relative to human insulin (relative to human insulin) [1]: 0.35
Insulin-receptor binding affinity relative to human insulin (relative to human insulin) [11]: 0.4
Substance: Gly(A21)Trp(B16)His(B25)Des(B30)-Insulin (ligand)

autophosphorylation activity relative to human insulin (relative to human insulin) [1]: 0.38
Insulin-receptor binding affinity relative to human insulin (relative to human insulin) [11]: 0.43
Substance: Gly(A21)Trp(B16)Trp(B25)Des(B30)-Insulin (ligand)

Insulin receptor B binding affinity relative to human insulin [12]: < 20%
Substance: Insulin analog 41 (Glu(A14)His(B16)His(B25)Des(B30)-insulin) (ligand)

autophosphorylation activity relative to human insulin (relative to human insulin) [1]: 0.32
Substance: Val(B16)Des(B30)-Insulin (ligand)

percent remaining insulin analog after 30 minutes with insulin degrading enzyme, IDE [2]: 98%
percent remaining insulin analog after 30 minutes with insulin degrading enzyme, IDE [13]: 80%
percent remaining insulin analog after 30 minutes with insulin degrading enzyme, IDE [3]: 86%
percent remaining insulin analog after 30 minutes with insulin degrading enzyme, IDE [4]: 77%
percent remaining insulin analog after 30 minutes with insulin degrading enzyme, IDE [14]: 88%
percent remaining insulin analog after 30 minutes with insulin degrading enzyme, IDE [5]: 81%
percent remaining insulin analog after 30 minutes with insulin degrading enzyme, IDE [15]: 41%
percent remaining insulin after 30 minutes with insulin degrading enzyme, IDE [6]: 38%
percent remaining insulin analog after 30 minutes with insulin degrading enzyme, IDE [16]: 12%
percent remaining insulin analog after 30 minutes with insulin degrading enzyme, IDE [7]: 11%
percent remaining insulin analog after 30 minutes with insulin degrading enzyme, IDE [8]: 86%
percent remaining insulin analog after 30 minutes with insulin degrading enzyme, IDE [9]: 2%
Substance: insulin degrading enzyme (IDE)

percent remaining insulin analog after 30 minutes in gastric fluid [2]: 0%
percent remaining insulin analog after 30 minutes in gastric fluid [3]: 52%
percent remaining insulin analog after 30 minutes in gastric fluid [4]: 52%
percent remaining insulin analog after 30 minutes in gastric fluid [5]: 0%
percent remaining insulin after 30 minutes in gastric fluid [6]: 0%
percent remaining insulin analog after 30 minutes in gastric fluid [7]: 44%
percent remaining insulin analog after 30 minutes in gastric fluid [8]: 36%
percent remaining insulin analog after 30 minutes in gastric fluid [9]: 30%
Substance: purified pepsin (from porcine stomach mucosa) in simulated gastric fluid (from UniProt P00791) (enzyme)

percent remaining insulin analog after 120 minutes with α-Chymotrypsin [2]: 30%
percent remaining insulin analog after 120 minutes with α-Chymotrypsin [3]: 40%
percent remaining insulin analog after 120 minutes with α-Chymotrypsin [4]: 99%
percent remaining insulin analog after 120 minutes with α-Chymotrypsin [5]: 35%
percent remaining insulin after 120 minutes with α-Chymotrypsin [6]: 5%
percent remaining insulin analog after 120 minutes with α-Chymotrypsin [7]: 31%
percent remaining insulin analog after 120 minutes with α-Chymotrypsin [8]: 34%
percent remaining insulin analog after 120 minutes with α-Chymotrypsin [9]: 58%
Substance: α-Chymotrypsin (enzyme)
